{
  "source": "patent US20210115087A1",
  "about": "(UNIVERSITY OF ROCHESTER, published 2021)",
  "binders": {"B1": {"name": "BIOT-M5-S7 (as labelled in the KD table of Example 5) (peptide)", "peptide": "GSGSTLSWCEAMDMCTD", "modifications": "N-terminal biotin; Cys5 and Cys11 crosslinked, by the printed MW 2121.41 with one of the isomeric linkers L-10, L-11, L-12 (drawings; probably L-11); C-terminal amide", "notes": "it fits the xylene-type linkers"}},
  "key": {"[1]": {"molecular_target": "T1, GST-Shh (recombinant GST-fused human Sonic Hedgehog) (human, UniProt Q15465 24-197)", "T1 construct": "Expressed in E. coli BL21(DE3), Ni-NTA purified, immobilized on microtiter plates; also called GST-fused Shh; not shown: glutathione-S-transferase (GST) containing a poly-histidine tag, from expression vector pET42b (Novagen); N-terminal fus", "experiment": "plate immunoassay: immobilized GST-Shh, purified FLAG-tagged peptide titrated, HRP anti-FLAG antibody", "protocol": "(§1) Hh protein binding assay. Shh binding activity/affinity of the linear and cyclic peptides was measured using the immunoassay outlined in FIG. 4. For these experiments, GST-Shh was immobilized on 96-well microtiter plates (100 μL of 4 μM GST-Shh solution in PBS buffer), followed by blocking with bovine serum albumin. After washing, each well was incubated with 100 μL of purified FLAG-fused peptide at varying concentrations for 1 hour at room temperature. After washing, each well was added with 100 μL of 1:2500 dilution of HRP-conjugate mouse anti-FLAG polyclonal antibody (Sigma-Aldrich) for 1 hour at room temperature. After washing, 100 μL of 2.2 mM o-phenylenediamine dihydrochloride, 4.2 mM urea hydrogen peroxide, 100 mM dibasic sodium phosphate and 50 mM sodium citrate, pH 5.0 was added to each well, followed by measurement of the absorbance at 450 nm using a Tecan Infinite 1000 plate reader. Equilibrium dissociation constants (KD) were determined by fitting the dose-response curves (FIG. 5) to a 1:1 binding isotherm equation via non-linear regression using SigmaPlot.\n(§2) Next, all of the yet unmodified positions within the HL2-m3 sequence (relative to HL2-m1) were randomized by site-saturation mutagenesis. These positions correspond to residue Thr1, Leu2, Asp3, Glu6, Glu7, Met8, Asp12 of the HL2-m3 sequence. […]"}, "[2]": {"molecular_target": "T1, GST-Shh (recombinant GST-fused human …)", "experiment": "plate immunoassay: immobilized GST-Shh, HRP anti-FLAG antibody", "protocol": "as §1, §2"}, "[3]": {"molecular_target": "T2, GST-Dhh (recombinant GST-fused human Desert Hedgehog) (human, UniProt O43323 23-198)", "T2 construct": "not shown: glutathione-S-transferase (GST) containing a poly-histidine tag, from expression vector pET42b (Novagen); N-terminal fus", "experiment": "plate immunoassay: immobilized GST-Dhh against GST-Shh, HRP anti-FLAG antibody", "protocol": "as §1\nHedgehog analog selectivity. KD values for FLAG-HL2-m5 binding to Ihh and Dhh were determined using the colorimetric immunoassay described earlier but using GST-Ihh and GST-Dhh-coated plates, respectively. […] Mean values and standard deviations were calculated from experiments performed at least in triplicate."}, "[4]": {"molecular_target": "T1, GST-Shh (recombinant GST-fused human …)", "experiment": "plate assay: immobilized GST-Shh, biotinylated peptide, HRP-streptavidin", "protocol": "as §1\nFor assessing the Shh binding affinity of the cysteine-crosslinked peptides described in Example 4, biotinylated variants of these peptides were prepared by introducing a biotin moiety to the N-terminal peptide of the peptide followed by a tetrapeptide (Gly-Ser-Gly-Ser) (SEQ ID NO: 72) spacer (i.e., peptides Biot-m5-s1 through Biot-m5-s10). The biotinylated peptides were tested in a modified variant of the Shh binding assay described in Example 1, where HRP-conjugated streptavidin is used instead of the HRP-conjugated anti-FLAG antibody."}, "[5]": {"molecular_target": "T1, GST-Shh (recombinant GST-fused human …)", "experiment": "plate immunoassay: immobilized GST-Shh, FLAG-tagged peptide titrated, HRP anti-FLAG antibody, A450", "protocol": "To measure the binding affinity of the peptides for Shh, an in vitro assay was established in which recombinant GST-fused Shh is immobilized on microtiter plates and then exposed to the FLAG-tagged peptide at varying concentrations. The Shh-bound peptide is then quantified colorimetrically (λ₄₅₀) using a horseradish peroxidase (HRP)-conjugated anti-FLAG antibody.\nas §1, with “After washing, each well was added with 100 μL of 1:2500 dilution of HRP-conjugate mouse anti-FLAG polyclonal antibody (Sigma-Aldrich) for 1 hour at room temperature.” left out"}},
  "note": "*1 amine or outer side, *2 acyl side, *3 side chain or, on linkers, in order; H or OH if unused. Bridges are numbered along the chain shown (N, C = ends). Where no end group is shown, it is not given here. [ ]: non-standard residue; d: D form. The star is where a group is joined. O2beY = O-alkylated Tyr from O-2-bromoethyl-tyrosine, O-CH2CH2- thioether-linked to Cys, O=C([C@H](Cc1ccc(OCC[*:3])cc1)N[*:1])[*:2]; L‑5 = linker -CH2S(CH2)2SCH2-, C(CSC[*:2])SC[*:1]; Biotin = O=C1N[C@H]2[C@H](CS[C@H]2CCCCC(=O)*)N1; L‑9 = linker -CH2SCH2CH=CHCH2SCH2-; L‑6 = linker -CH2S(CH2)3SCH2-; L‑4 = linker -CH2SCH2SCH2-",
  "data": [
    {"binder": "MDYKDDDDKGSGSTLSW[O2beY]EAMDMCTD-OH (bridge 18-24; not fully specified (bridges))", "note": "[FLAG-HL2-m5]", "values": [
      {"measurement": "Kd", "setting": "[1]", "result": 170, "unit": "nM"},
      {"measurement": "fold higher binding affinity for Shh compared to FLAG-HL2-pep", "setting": "[2]", "result": "~120", "unit": "fold"},
      {"measurement": "fold lower affinity than for Shh", "setting": "[3]", "result": 2, "unit": "fold"}
    ]},
    {"binder": "Biotin-GSGSTLSWCEAMDMCTD-NH2 (disulfide 9-15)", "note": "[Biot-m5-s1]", "values": [
      {"measurement": "Kd", "setting": "[4]", "result": 1.7, "unit": "µM"}
    ]},
    {"binder": "Biotin-GSGSTLSWCEAMDMCTD-NH2 (linker 9-15 via L‑4)", "note": "[Biot-m5-s2]", "values": [
      {"measurement": "Kd", "setting": "[4]", "result": 3.4, "unit": "µM"}
    ]},
    {"binder": "Biotin-GSGSTLSWCEAMDMCTD-NH2 (linker 9-15 via L‑5)", "note": "[Biot-m5-s3]", "values": [
      {"measurement": "Kd", "setting": "[4]", "result": 5.9, "unit": "µM"}
    ]},
    {"binder": "Biotin-GSGSTLSWCEAMDMCTD-NH2 (linker 9-15 via L‑6)", "note": "[Biot-m5-s4]", "values": [
      {"measurement": "Kd", "setting": "[4]", "result": 6.4, "unit": "µM"}
    ]},
    {"binder": "Biotin-GSGSTLSWCEAMDMCTD-NH2 (linker 9-15 via L‑9)", "note": "[BIOT-M5-S5 (as labelled in the KD table of Example 5)]", "values": [
      {"measurement": "Kd", "setting": "[4]", "result": 1.1, "unit": "µM"}
    ]},
    {"binder": "B1", "values": [
      {"measurement": "Kd", "setting": "[4]", "result": 9.2, "unit": "µM"}
    ]},
    {"binder": "MDYKDDDDKGSGSTLDDMEEMDGLSD (also called linear L2-derived peptide)", "note": "[FLAG-HL2-pep]", "values": [
      {"measurement": "Kd", "setting": "[5]", "result": 20, "unit": "µM"}
    ]}
  ]
}
